Tests used:
Assay in all cases: FACS on HEK293F [D00014 FIG. 10B]
[1] = target: HK68 H3m2-cl9+10+11+12 (influenza A virus H3N2, UniProt Q91MA7 17-566)
[2] = target: HK68 H3m2-cl9+10+11+13-GCN4 (influenza A virus H3N2, UniProt Q91MA7 17-566)
[3] = target: HK68 H3m2-cl9 (influenza A virus H3N2, UniProt Q91MA7 17-566)
[4] = target: HK68 H3m2-cl9+10 (influenza A virus H3N2, UniProt Q91MA7 17-566)

Measured: binding result

B1: CR8057 (antibody, V domains shown)
VH: EVQLVESGGGLVQPGGSLRLSCAASGFTDSVIFMSWVRQAPGKGLECVSIIYIDDSTYYADSVKGRFTISRHNSMGTVFLEMNSLRPDDTAVYYCATESGDFGDQTGPYHYYAMDV
VL: QSALTQPASVSGSPGQSITISCTGSSGDIGGYNAVSWYQHHPGKAPKLMIYEVTSRPSGVSDRFSASRSGDTASLTVSGLQAEDEAHYYCCSFADSNILI
no binding (tested: 5 ug/ml): [1] | [2] | [3] | [4]

From patent US20160355553A1 (Janssen / Centocor, published 2016)
